These results are taken from publication PMC4763223.

What all share (assay): GEMMA (gas-phase electrophoretic mobility macromolecule analysis); DNA-free protein; equilibrated into 100 mM ammonium acetate pH 7.8, diluted to 20 mM ammonium acetate and 0.005% Tween-20; low flow-rate (pressure 2 Psi); non-tagged Kat1 at 0.085 mg/ml
The target of assay [1] is Glutathione S-transferase (GST) alone.
For assay [2], the target named is Glutathione S-transferase (GST)-tagged Kat1+G (Kluyveromyces lactis hAT-transposase 1) (Kluyveromyces lactis).
Assay [3] has as its target non-tagged Kat1 (GST-tag cleaved from GST-Kat1 with thrombin) (Kluyveromyces lactis).

Chain of Glutathione S-transferase (GST) alone (P08515 2-218): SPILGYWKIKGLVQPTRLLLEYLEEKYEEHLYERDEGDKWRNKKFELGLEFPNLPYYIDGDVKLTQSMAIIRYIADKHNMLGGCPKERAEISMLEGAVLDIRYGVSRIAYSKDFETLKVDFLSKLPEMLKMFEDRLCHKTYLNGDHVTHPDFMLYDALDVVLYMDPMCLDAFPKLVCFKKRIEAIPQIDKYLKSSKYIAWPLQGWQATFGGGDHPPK

Take “Glutathione S-transferase (GST) alone (enzyme)”: the stoichiometry N in assay [1] stood at 2.

For “Glutathione S-transferase (GST)-tagged Kat1+G (Kluyveromyces lactis hAT-transposase 1) (enzyme)”, the stoichiometry N in assay [2] came to 6.

The substance “non-tagged Kat1 (GST-tag cleaved from GST-Kat1 with thrombin) (enzyme)” returned a stoichiometry N in assay [3] of 6.

Broadly, the stoichiometry N is a count of units in the complex or per binding partner.
